These results are taken from patent publication US7125658B2, “Small protein that interacts with a ribonucleotide reductase subunit and uses thereof” (The Trustees of Columbia University in the City of New York, priority 1998, dated 2006).

One test concerns the target T1, bovine serum albumin (bovine, UniProt P02769 25-607).
T1 construct: Control; also called BSA
In words: BIAcore, immobilized Sml1p. (Surface plasmon resonance follows binding to a sensor surface in real time, without labels.)

Test [1] has as its target T2, Recombinant mouse ribonucleotide reductase R1 protein (mouse, UniProt P07742 1-792).
T2 construct: also called mouse R1 protein
T2 sequence (looked up): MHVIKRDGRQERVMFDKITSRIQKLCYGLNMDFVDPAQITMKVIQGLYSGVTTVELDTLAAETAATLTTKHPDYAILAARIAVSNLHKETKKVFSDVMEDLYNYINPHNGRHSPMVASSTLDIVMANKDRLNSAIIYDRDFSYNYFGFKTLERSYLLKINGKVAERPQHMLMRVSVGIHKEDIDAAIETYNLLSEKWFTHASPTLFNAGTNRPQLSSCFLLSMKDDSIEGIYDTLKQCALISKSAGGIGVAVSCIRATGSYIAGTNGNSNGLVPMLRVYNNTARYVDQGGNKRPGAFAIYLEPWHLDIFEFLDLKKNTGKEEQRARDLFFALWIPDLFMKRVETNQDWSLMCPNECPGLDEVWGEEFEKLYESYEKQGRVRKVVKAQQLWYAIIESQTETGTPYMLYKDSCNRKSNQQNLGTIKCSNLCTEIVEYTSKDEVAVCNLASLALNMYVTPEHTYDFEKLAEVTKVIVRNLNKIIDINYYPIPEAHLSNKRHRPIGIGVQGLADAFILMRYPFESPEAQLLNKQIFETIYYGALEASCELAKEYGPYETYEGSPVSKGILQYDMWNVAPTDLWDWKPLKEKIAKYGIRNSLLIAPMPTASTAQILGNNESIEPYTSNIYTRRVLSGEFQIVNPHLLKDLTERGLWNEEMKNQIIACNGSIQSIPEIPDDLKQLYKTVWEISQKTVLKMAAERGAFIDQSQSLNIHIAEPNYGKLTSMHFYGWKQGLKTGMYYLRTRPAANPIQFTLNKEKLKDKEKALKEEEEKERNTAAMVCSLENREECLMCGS
Description: BIAcore biosensor, mouse R1 protein alone at 0.1 mg/ml over immobilized Sml1p, prolonged injection, bulk effect not subtracted.

Test [2] concerns the target T3, Recombinant yeast Rnr1 protein (large subunit of ribonucleotide reductase) (yeast (Saccharomyces cerevisiae), UniProt P21524 1-888).
T3 sequence (looked up): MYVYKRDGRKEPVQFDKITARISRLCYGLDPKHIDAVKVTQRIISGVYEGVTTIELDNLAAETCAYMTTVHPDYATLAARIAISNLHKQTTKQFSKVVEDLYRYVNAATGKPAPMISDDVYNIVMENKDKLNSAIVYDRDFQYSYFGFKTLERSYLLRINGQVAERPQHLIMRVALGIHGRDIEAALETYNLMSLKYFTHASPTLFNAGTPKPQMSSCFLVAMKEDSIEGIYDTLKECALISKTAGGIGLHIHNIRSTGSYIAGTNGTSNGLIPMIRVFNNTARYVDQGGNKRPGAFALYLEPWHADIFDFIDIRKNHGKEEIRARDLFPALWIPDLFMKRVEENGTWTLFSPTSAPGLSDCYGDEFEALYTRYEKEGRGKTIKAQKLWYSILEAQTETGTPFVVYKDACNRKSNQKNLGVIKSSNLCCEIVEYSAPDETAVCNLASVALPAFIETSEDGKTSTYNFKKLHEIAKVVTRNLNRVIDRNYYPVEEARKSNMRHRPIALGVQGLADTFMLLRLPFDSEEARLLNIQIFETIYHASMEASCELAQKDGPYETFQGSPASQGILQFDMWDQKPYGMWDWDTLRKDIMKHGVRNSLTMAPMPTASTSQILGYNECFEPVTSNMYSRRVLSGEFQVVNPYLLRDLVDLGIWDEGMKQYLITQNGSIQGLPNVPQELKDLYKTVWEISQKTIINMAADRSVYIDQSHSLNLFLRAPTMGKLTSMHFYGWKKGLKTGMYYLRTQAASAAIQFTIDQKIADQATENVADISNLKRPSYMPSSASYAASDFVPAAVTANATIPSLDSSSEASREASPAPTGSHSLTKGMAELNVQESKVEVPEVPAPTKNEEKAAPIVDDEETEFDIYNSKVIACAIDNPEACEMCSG
In words: cell-based or functional assay.

Another test addresses T4, mouse R1 protein (Mus musculus, UniProt P07742).
T4 construct: made in house; host or cells: E. coli BL21 (DE3)pLysS, pET3a
T4 sequence (P07742 1-792): T2 sequence (looked up)
In words: BIAcore biosensor analysis, immobilized Sml1p and mouse R1 protein. It counts as binding. As to conditions: not quantified. As for the experimental part:
FIG. 14 Sensorgram showing the interaction between immobilized Sml1p and the mouse R1 protein. […] Curve 3 showes the response with mouse R1 protein alone at 0.1 mg/ml passed over immobilized Sml1p. Note that the injection time for this curve is prolonged from 6 min to 14 min.
BIAcore biosensor analysis. The interaction between Sml1p and either yeast Rnr1p or mouse R1 protein was studied by biosensor analysis using the BIAcore method (Biacore AB). The Sml1 protein was prepared in 10 mM sodium acetate, pH 5.2, at a concentration of 0.44 mg/ml; it was then immobilized on the dextran layer of the sensor chip as described previously for the mouse R2 protein (17). The ligand proteins were equilibrated with running buffer (10 mM Hepes-KOH, pH 7.4, 200 mM potassium acetate, 1 mM EDTA, 5 mM magnesium acetate and 0.05% Surfactant P20 (BIAcore). The interactions were studied at a constant temperature of 22° C. and a constant flow of 5 μl/min. Kinetics for the interaction of Sml1p with yeast Rnr1p was determined by allowing the immobilized Sml1p to interact with increasing concentrations of Rnr1p (18). The resonance unit (RU) is proportional to the mass, and 1 RU corresponds to a surface concentration of 1 pg of protein/mm^2 of the 100 nm thick dextran layer (19).
Kinetic studies of the interaction between the mouse RNR R1 protein and the Sml1 protein using a biosensor technique. […]

T1 sequence (P02769 25-607 limits assumed): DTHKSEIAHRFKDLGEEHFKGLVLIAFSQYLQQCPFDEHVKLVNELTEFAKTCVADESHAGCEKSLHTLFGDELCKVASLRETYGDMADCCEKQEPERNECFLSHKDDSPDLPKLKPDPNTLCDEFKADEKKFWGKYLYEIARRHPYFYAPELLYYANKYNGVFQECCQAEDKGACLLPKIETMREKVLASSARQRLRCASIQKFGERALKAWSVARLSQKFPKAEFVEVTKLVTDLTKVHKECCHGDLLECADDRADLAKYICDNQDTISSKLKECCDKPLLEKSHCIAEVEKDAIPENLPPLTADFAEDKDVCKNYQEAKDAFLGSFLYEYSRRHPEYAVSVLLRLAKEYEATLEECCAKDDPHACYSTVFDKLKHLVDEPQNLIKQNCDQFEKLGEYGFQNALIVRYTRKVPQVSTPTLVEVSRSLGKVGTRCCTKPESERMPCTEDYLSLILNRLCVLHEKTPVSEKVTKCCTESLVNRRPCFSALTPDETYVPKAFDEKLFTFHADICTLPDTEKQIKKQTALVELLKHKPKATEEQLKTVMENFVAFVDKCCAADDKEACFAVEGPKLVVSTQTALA

B1: Recombinant yeast Sml1 protein (other)
chain: MQNSQDYFYAQNRCQQQQAPSTLRTVTMAEFRRVPLPPMAEVPMLSTQNSMGSSASASASSLEMWEKDLEERLNSIDHDMNNNKFGSGELKSMFNQGKVEEMDF
notes: Immobilized on the BIAcore chip in the biosensor experiments; also called YML058W product
As for B1, the binding result with bovine serum albumin was “no binding (tested: 0.1 mg/ml)”; in test [1] it was “binds”. Moreover, the “efficiency in inhibiting yeast RNR activity relative to the Sml1p C terminal nonapeptide, molar basis” value in test [2] is ~200 times.

B2: Sml1p: 104 amino acid yeast protein encoded by YML058w (SML1) that binds Rnr1 and inhibits ribonucleotide reductase; recombinant, expressed in E. coli (protein)
chain: B1 chain
B2: in the test with mouse R1 protein, the “binding to mouse R1 protein” value was “high affinity”.
